Test results as given in IntAct's records for PubMed 31515488.

B1: Nucleoporin p54 (Homo sapiens), Q7Z3B4 (parent)
chain: MAFNFGAPSGTSGTAAATAAPAGGFGGFGTTSTTAGSAFSFSAPTNTGTTGLFGGTQNKGFGFGTGFGTTTGTSTGLGTGLGTGLGFGGFNTQQQQQTTLGGLFSQPTQAPTQSNQLINTASALSAPTLLGDERDAILAKWNQLQAFWGTGKGYFNNNIPPVEFTQENPFCRFKAVGYSCMPSNKDEDGLVVLVFNKKETEIRSQQQQLVESLHKVLGGNQTLTVNVEGTKTLPDDQTEVVIYVVERSPNGTSRRVPATTLYAHFEQANIKTQLQQLGVTLSMTRTELSPAQIKQLLQNPPAGVDPIIWEQAKVDNPDSEKLIPVPMVGFKELLRRLKVQDQMTKQHQTRLDIISEDISELQKNQTTSVAKIAQYKRKLMDLSHRTLQVLIKQEIQRKSGYAIQADEEQLRVQLDTIQGELNAPTQFKGRLNELMSQIRMQNHFGAVRSEERYYIDADLLREIKQHLKQQQEGLSHLISIIKDDLEDIKLVEHGLNETIHIRGGVFS
B2: Coiled-coil domain-containing protein 33 (Homo sapiens), Q8N5R6-5 (parent)
chain: MGEPGPPSPPAPKAAPGLIDSFSEMNNYRRAMQKMAEDILSLRRQASILEGENRILRSRLAQQEEEEGQGKASEAQNTVSMKQKLLLSELDMKKLRDRVQHLQNELIRKNDREKELLLLYQAQQPQAALLKQYQGKLQKMKALEETVRHQEKVIEKMERVLEDRLQDRSKPPPLNRQQGKPYTGFPMLSASGLPLGSMGENLPVELYSVLLAENAKLRTELDKNRHQQAPIILQQQALPVDPGELGAGGDLTERLQETHGPGHSECTETLPAQDLLSGTSDKFNLLAKLEHAQSRILSLESQLEDSARRWGREKQDLATRLQEQEKGFRHPSNSIIIEQPVSDPPGVAPRGSGGGAGSHRTPKVTGP
partner: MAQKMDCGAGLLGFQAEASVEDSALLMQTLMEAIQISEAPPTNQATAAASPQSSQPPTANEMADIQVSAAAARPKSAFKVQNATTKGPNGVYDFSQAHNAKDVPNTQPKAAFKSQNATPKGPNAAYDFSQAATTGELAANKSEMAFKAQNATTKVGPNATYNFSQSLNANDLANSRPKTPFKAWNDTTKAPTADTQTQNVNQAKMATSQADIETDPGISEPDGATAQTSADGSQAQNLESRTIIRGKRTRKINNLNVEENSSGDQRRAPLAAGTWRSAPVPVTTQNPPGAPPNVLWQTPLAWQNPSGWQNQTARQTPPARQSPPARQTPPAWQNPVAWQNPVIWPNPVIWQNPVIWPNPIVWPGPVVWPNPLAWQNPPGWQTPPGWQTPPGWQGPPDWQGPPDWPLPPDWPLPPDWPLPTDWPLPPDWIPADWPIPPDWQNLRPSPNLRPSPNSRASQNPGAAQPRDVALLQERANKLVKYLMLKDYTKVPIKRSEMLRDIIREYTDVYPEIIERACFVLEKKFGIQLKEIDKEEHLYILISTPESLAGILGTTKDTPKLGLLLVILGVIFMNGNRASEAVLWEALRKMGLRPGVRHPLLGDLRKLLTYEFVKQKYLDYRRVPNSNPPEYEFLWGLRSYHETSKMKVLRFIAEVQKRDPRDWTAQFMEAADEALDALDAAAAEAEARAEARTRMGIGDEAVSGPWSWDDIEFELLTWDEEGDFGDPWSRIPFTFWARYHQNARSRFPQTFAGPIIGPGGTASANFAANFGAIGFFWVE
B3: Proto-oncogene serine/threonine-protein kinase mos (Homo sapiens), P00540 (parent)
chain: MPSPLALRPYLRSEFSPSVDARPCSSPSELPAKLLLGATLPRAPRLPRRLAWCSIDWEQVCLLQRLGAGGFGSVYKATYRGVPVAIKQVNKCTKNRLASRRSFWAELNVARLRHDNIVRVVAASTRTPAGSNSLGTIIMEFGGNVTLHQVIYGAAGHPEGDAGEPHCRTGGQLSLGKCLKYSLDVVNGLLFLHSQSIVHLDLKPANILISEQDVCKISDFGCSEKLEDLLCFQTPSYPLGGTYTHRAPELLKGEGVTPKADIYSFAITLWQMTTKQAPYSGERQHILYAVVAYDLRPSLSAAVFEDSLPGQRLGDVIQRCWRPSAAQRPSARLLLVDLTSLKAELG
partner: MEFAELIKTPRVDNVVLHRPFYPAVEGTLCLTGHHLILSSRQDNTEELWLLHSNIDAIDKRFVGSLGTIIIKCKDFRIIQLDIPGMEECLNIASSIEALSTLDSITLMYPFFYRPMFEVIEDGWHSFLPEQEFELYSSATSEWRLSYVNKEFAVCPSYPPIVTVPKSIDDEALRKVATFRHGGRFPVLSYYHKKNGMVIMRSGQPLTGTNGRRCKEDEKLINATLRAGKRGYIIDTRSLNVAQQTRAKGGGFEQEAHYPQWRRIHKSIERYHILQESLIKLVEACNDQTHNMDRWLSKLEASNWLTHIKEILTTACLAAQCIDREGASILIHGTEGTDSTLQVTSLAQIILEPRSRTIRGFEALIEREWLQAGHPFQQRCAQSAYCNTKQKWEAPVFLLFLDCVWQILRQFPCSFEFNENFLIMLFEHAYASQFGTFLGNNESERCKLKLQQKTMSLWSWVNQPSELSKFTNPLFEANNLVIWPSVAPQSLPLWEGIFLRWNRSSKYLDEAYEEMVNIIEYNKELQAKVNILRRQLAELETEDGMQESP
B4: Cyclin-D1-binding protein 1 (Homo sapiens), O95273 (parent)
chain: MASATAPAAAVPTLASPLEQLRHLAEELRLLLPRVRVGEAQETTEEFNREMFWRRLNEAAVTVSREATTLTIVFSQLPLPSPQETQKFCEQVHAAIKAFIAVYYLLPKDQGITLRKLVRGATLDIVDGMAQLMEVLSVTPTQSPENNDLISYNSVWVACQQMPQIPRDNKAAALLMLTKNVDFVKDAHEEMEQAVEECDPYSGLLNDTEENNSDNHNHEDDVLGFPSNQDLYWSEDDQELIIPCLALVRASKACLKKIRMLVAENGKKDQVAQLDDIVDISDEISPSVDDLALSIYPPMCHLTVRINSAKLVSVLKKALEITKASHVTPQPEDSWIPLLINAIDHCMNRIKELTQSELEL

Variants of: B1
Conditions: with nup62_human NUP62, P37198
nup62_human NUP62, P37198, sequence (P37198 whole entry): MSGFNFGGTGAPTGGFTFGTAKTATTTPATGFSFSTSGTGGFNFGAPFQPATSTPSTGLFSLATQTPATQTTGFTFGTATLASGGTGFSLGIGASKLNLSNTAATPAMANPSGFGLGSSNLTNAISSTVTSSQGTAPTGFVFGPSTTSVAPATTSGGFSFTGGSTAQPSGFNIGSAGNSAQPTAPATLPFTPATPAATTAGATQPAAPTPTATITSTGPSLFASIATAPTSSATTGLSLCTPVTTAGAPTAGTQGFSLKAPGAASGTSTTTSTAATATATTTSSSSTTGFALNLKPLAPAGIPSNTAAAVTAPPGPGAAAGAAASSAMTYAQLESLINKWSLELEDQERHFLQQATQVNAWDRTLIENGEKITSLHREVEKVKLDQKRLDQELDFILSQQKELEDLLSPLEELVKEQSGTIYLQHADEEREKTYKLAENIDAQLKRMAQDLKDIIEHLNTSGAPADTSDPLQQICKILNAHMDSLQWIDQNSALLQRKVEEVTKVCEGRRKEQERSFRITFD

Variant | effect of a mutation on the interaction
N250S | with no effect
R385K | with no effect

Variants of: B1
Conditions: with nup58_human NUP58, Q9BVL2
nup58_human NUP58, Q9BVL2, sequence (Q9BVL2 whole entry): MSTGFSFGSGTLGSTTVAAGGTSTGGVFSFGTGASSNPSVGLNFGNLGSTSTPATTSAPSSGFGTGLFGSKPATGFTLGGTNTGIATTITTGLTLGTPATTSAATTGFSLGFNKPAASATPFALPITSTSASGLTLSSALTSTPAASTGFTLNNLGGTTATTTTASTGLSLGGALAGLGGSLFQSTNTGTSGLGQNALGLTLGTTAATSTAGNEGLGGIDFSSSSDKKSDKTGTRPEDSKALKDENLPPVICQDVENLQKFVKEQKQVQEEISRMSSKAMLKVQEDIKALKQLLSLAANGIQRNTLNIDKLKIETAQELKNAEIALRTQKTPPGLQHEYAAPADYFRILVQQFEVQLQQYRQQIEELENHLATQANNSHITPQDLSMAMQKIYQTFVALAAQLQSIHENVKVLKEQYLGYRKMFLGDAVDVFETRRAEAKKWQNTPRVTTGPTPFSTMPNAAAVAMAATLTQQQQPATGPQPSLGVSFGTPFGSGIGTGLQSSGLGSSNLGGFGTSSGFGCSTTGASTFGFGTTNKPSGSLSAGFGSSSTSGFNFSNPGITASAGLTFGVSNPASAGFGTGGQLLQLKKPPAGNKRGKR

Variant | effect of a mutation on the interaction
N250S | with no effect
R385K | with no effect

Variants of: B1
Conditions: with hgs_human HGS

Variant | effect of a mutation on the interaction
N250S | with no effect
R385K | with no effect

Variants of: B1
Conditions: with KRT15, P19012
KRT15, P19012, sequence (P19012 whole entry): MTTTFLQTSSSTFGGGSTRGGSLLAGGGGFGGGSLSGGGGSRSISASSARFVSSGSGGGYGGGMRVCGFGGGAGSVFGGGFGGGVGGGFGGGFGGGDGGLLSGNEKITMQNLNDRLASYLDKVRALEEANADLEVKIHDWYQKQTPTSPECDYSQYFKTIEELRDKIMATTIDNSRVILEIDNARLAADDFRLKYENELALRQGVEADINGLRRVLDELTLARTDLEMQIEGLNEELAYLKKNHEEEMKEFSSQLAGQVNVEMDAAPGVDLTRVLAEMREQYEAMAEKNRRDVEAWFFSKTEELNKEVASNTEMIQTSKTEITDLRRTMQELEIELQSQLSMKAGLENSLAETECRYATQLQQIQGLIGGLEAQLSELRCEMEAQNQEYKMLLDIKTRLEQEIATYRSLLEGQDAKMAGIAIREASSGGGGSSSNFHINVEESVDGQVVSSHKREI

Variant | effect of a mutation on the interaction
N250S | with no effect
R385K | with no effect

Variants of: B2
Conditions: with magd1_human MAGED1, Q9Y5V3

Variant | effect of a mutation on the interaction
R30L | with no effect
P203L | with no effect
G196R | with no effect
M25V | with no effect

Variants of: B3
Conditions: with mtmr9_human MTMR9, Q96QG7

Variant | effect of a mutation on the interaction
I55V | with no effect

Variants of: B4
Conditions: with ezh1_human EZH1, Q92800
ezh1_human EZH1, Q92800, sequence (Q92800 whole entry): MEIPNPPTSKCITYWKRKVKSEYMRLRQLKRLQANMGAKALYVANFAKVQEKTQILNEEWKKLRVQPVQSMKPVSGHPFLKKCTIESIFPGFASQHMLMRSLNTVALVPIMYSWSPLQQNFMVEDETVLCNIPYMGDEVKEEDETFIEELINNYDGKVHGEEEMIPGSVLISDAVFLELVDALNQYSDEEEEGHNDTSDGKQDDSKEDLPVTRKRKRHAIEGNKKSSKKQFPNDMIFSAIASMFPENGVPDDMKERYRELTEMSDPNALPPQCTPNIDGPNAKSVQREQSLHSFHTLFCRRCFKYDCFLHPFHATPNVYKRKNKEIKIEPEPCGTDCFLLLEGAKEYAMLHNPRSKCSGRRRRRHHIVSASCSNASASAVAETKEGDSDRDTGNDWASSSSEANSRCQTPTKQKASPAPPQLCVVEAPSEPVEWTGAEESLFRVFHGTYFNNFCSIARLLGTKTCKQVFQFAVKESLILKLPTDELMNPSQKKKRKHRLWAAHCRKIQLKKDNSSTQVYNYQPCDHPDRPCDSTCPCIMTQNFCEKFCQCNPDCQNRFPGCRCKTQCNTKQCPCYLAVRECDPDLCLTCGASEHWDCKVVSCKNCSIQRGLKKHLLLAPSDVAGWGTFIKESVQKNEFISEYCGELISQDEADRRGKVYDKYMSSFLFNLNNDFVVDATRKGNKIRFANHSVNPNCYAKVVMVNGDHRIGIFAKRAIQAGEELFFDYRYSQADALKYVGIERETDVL

Variant | effect of a mutation on the interaction
I277T | disrupting interaction strength

Variants of: B4
Conditions: with pex39_human PEX39, Q5I0X4
pex39_human PEX39, Q5I0X4, sequence (Q5I0X4 whole entry): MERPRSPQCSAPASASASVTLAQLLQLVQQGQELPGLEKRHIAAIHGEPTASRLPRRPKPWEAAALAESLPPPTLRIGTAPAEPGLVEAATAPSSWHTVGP

Variant | effect of a mutation on the interaction
I277T | disrupting interaction strength

Variants of: B4
Conditions: with evg1_human C22orf23, Q9BZE7

Variant | effect of a mutation on the interaction
I277T | disrupting interaction strength

Variants of: B4
Conditions: with map7_human MAP7, Q14244

Variant | effect of a mutation on the interaction
I277T | disrupting interaction strength

Variants of: B4
Conditions: with myp2_human PMP2, P02689

Variant | effect of a mutation on the interaction
I277T | disrupting interaction strength

Variants of: B4
Conditions: with rl39l_human RPL39L

Variant | effect of a mutation on the interaction
I277T | disrupting interaction strength

Variants of: B4
Conditions: with zn707_human ZNF707, Q96C28

Variant | effect of a mutation on the interaction
I277T | disrupting interaction strength

Variants of: B4
Conditions: with bmp7_human BMP7, P18075
bmp7_human BMP7, P18075, sequence (P18075 whole entry): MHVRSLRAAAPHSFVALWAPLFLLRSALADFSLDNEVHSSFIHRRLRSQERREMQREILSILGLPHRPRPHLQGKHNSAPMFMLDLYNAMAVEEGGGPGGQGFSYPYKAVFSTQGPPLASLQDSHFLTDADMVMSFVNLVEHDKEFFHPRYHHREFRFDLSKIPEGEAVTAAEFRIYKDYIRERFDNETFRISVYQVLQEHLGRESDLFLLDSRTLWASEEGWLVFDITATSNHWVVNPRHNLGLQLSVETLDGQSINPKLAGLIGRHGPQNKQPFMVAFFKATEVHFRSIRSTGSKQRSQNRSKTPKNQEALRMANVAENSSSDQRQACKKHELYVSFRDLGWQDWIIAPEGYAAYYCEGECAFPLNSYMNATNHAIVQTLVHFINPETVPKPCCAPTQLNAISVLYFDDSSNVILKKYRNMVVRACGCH

Variant | effect of a mutation on the interaction
I277T | disrupting interaction strength

Variants of: B4
Conditions: with zn136_human ZNF136, P52737
zn136_human ZNF136, P52737, sequence (P52737 whole entry): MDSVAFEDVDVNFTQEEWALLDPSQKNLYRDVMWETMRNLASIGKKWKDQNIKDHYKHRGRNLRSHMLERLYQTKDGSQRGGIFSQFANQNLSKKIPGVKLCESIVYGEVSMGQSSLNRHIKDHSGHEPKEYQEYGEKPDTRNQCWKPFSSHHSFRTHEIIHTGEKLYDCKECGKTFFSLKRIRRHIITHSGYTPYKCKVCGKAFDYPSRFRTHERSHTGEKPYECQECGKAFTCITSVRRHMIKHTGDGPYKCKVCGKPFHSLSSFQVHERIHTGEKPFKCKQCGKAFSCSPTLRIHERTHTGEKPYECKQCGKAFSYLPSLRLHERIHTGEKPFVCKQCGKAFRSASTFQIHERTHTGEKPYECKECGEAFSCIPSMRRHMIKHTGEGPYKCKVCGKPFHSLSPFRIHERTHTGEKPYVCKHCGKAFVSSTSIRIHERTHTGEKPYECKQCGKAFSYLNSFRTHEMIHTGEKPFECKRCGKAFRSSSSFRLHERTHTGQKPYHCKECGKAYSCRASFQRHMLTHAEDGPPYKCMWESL

Variant | effect of a mutation on the interaction
I277T | disrupting interaction strength

Variants of: B4
Conditions: with cul5_human CUL5, Q93034

Variant | effect of a mutation on the interaction
I277T | disrupting interaction strength

Variants of: B4
Conditions: with zn555_human ZNF555, Q8NEP9
zn555_human ZNF555, Q8NEP9, sequence (Q8NEP9 whole entry): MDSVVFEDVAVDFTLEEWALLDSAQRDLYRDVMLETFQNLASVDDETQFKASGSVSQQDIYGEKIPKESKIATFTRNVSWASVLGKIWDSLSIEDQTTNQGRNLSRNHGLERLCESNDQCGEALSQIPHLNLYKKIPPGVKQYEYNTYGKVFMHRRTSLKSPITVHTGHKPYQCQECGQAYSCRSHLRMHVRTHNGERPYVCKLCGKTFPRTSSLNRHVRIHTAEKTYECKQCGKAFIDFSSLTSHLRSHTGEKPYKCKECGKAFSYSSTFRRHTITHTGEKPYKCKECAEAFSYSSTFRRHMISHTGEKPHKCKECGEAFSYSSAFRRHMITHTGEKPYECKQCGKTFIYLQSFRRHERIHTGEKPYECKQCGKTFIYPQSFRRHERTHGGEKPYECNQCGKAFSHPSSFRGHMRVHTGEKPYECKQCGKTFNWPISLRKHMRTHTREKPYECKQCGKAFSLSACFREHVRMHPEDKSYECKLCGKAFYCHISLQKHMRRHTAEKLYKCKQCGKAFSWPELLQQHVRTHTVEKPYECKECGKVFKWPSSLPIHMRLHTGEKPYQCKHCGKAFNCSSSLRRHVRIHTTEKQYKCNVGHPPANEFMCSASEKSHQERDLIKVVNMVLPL

Variant | effect of a mutation on the interaction
I277T | disrupting interaction strength

Variants of: B4
Conditions: with ilf2_human ILF2, Q12905

Variant | effect of a mutation on the interaction
I277T | disrupting interaction strength

Variants of: B4
Conditions: with tnnt1_human TNNT1, P13805
tnnt1_human TNNT1, P13805, sequence (P13805 whole entry): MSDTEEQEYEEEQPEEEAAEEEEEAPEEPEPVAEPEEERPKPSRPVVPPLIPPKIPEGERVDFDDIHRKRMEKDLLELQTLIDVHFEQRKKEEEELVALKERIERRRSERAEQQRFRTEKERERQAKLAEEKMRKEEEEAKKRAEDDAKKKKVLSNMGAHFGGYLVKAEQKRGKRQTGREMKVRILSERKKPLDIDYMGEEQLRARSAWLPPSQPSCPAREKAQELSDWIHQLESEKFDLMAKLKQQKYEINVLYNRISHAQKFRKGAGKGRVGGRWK

Variant | effect of a mutation on the interaction
I277T | disrupting interaction strength

Variants of: B4
Conditions: with nano2_human NANOS2, P60321
nano2_human NANOS2, P60321, sequence (P60321 whole entry): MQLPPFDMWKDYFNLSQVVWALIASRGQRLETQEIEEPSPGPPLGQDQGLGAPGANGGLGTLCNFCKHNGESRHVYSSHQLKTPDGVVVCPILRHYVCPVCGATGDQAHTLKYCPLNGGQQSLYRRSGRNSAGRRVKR

Variant | effect of a mutation on the interaction
I277T | disrupting interaction strength

Variants of: B4
Conditions: with tha10_human THAP10, Q9P2Z0
tha10_human THAP10, Q9P2Z0, sequence (Q9P2Z0 whole entry): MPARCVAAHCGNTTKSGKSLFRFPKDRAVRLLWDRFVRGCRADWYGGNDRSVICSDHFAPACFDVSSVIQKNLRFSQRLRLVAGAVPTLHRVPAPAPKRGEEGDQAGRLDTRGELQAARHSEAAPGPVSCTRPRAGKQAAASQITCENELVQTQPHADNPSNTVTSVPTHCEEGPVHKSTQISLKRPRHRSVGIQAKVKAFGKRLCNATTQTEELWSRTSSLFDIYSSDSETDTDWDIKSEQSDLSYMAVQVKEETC

Variant | effect of a mutation on the interaction
I277T | disrupting interaction strength

Variants of: B4
Conditions: with tppc5_human TRAPPC5, Q8IUR0
tppc5_human TRAPPC5, Q8IUR0, sequence (Q8IUR0 whole entry): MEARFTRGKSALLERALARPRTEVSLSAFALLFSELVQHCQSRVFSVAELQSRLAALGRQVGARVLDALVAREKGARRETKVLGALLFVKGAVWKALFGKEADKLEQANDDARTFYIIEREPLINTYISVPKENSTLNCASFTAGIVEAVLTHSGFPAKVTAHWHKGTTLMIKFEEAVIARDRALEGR

Variant | effect of a mutation on the interaction
I277T | disrupting interaction strength
